# Assay results: patent US20200332015A1 (NAMAB THERAPEUTICS, published 2020)
# T1: mouse Fc-tagged mouse CD137 (R&D Systems, cat. 937-4B-050) (mouse, UniProt P20334 24-187)
# T1 construct: also called mouse CD137-Fc chimeric protein
# T1 sequence (looked up): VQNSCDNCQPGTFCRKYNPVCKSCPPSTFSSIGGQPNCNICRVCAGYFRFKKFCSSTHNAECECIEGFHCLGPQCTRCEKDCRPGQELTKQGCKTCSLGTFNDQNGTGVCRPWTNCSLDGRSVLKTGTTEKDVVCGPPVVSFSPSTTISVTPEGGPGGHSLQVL
# B1: PRO1057 (38_02_A04 sc01 scDb-i/33-03-G02 sc01 scDb-o/mxr HSA (23-13-A01-sc03, sk17sh4)) (other)
# chain: DIQMTQSPSSLSASVGDRVTITCQASQSINDYLAWYQQKPGKAPKLLIYKASTLASGVPSRFSGSGSGTDFTLTISSLQPEDFATYYCQQGYIITDIDNVFGTGTKVTVLGGGGGSQVQLQESGPGLVKPSETLSLTCKVSGFSFSNSYWICWIRQPPGKGLEWIGCTFVGSSDSTYYANWAKGRVTISVDSSKNQFSLKLSSVTAADTAVYYCARHPSDAVYGYANNLWGQGTLVTVSSGGGGSGGGGSGGGGSGGGGSIQMTQSPSSLSASVGDRVTITCQASQSINNVLAWYQQKPGKAPKLLIYRASTLASGVPSRFSGSGSGTDFTLTISSLQPEDFATYYCQSSYGNYGDFGTGTKVTVLGGGGGSQVQLQESGPGLVKPSETLSLTCKVSGFSFSSGYDMCWIRQPPGKGLEWIGCVVAGSVDITYYASWAKGRVTISVDSSKNQFSLKLSSVTAADTAVYYCARKDAYSDAFNLWGQGTLVTVSSGGGGSGGGGSVVMTQSPSSLSASVGDRVTITCQASQIISSRSAWYQQKPGQPPKLLIYQASKLASGVPSRFSGSGSGTDFTLTISSLQPEDFATYYCQCTYIDSNFGAFGGGTKLTVLGGGGGSGGGGSGGGGSGGGGSEVQLVESGGGLVQPGGSLRLSCAASGFSFSSSYWICWVRQAPGKGLEWVGCVFTGDGTTYYASWAKGRFTISRDNSKNTVYLQMNSLRAEDTATYFCARPVSVYYYGMDLWGQGTLVTVSS
# notes: Trispecific scDb-scFv
# Tests used:
# [1] = target: T2, human CD137 expressed on Jurkat cells (human, UniProt Q07011 24-255); assay: cell-based or functional assay
# [2] = target: T2, human CD137 expressed on Jurkat cells; assay: cell-based or functional assay; remark: listed apart in the source
# [3] = target: T1, mouse Fc-tagged mouse CD137 (R&D …); assay: SPR T200, antigen-Fc captured, molecule as analyte
# Method in brief: (§1)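 Apparent KD, ka and kd come from a one-to-one Langmuir model. Species Fc proteins were captured on an immobilized anti-Fc surface, and analyte at 0.12-90 nM (three-fold series) was flowed 3 min with 10-min dissociation; surfaces were stripped with 3 M MgCl₂.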
# [4] = target: human PDL1-Fc chimeric protein (human, UniProt Q9NZQ7 19-238, limits assumed); assay: SPR T200, antigen-Fc captured, molecule as analyte
# Method in brief: as §1
# [5] = target: T3, Fc tagged human CD137 (R&D Systems, cat. 838-4B-100) (human, UniProt Q07011 24-186); assay: SPR T200, antigen-Fc captured, molecule as analyte
# T3 construct: also called CD137 Fc chimera; human CD137-Fc chimeric protein
# Method in brief: as §1
# [6] = target: T4, cynomolgus monkey Fc-tagged CD137 (R&D Systems, cat. 9324-4B-100) (cynomolgus monkey, UniProt A9YYE7 24-186); assay: SPR T200, antigen-Fc captured, molecule as analyte
# T4 construct: also called cynomolgus CD137-Fc chimeric protein
# T4 sequence (A9YYE7 entry or part of it): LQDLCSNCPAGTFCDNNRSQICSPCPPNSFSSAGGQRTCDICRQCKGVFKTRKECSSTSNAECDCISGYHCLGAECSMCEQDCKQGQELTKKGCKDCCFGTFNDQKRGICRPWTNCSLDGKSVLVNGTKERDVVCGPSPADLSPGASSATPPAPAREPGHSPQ
# Method in brief: as §1
# human serum albumin = target: T5, human serum albumin (human, UniProt P02768 25-609); assay: SPR T200, SA coupled to chip, pH 5.5
# T5 construct: also called human SA; HSA
# Procedure: (§2) Affinity of molecules to serum albumin (SA) of the different species was determined by SPR measurements using a Biacore T200 device (GE Healthcare). SA was directly coupled to a CM5 sensor chip (GE Healthcare) using amine coupling chemistry. […] The assay was run in a 1×PBS-Tween buffer at pH 5.5.
# mouse serum albumin = target: T6, mouse serum albumin (mouse, UniProt P07724 25-608); assay: SPR T200, SA coupled to chip, pH 5.5
# T6 construct: also called mouse SA; MSA
# Procedure: as §2
# [7] = target: T2, human CD137 expressed on Jurkat cells; assay: cell-based or functional assay; remark: listed apart in the source
# [8] = target: T2, human CD137 expressed on Jurkat cells; assay: cell-based or functional assay; remark: listed apart in the source
binder,measurement,setting,value
B1,"EC50 NFkB-luciferase, CHO-PDL1 cells, 24 h, + HBA (so in the source)",[1],0.792 µg/mL
same,"Top of curve fit, NFkB-luciferase, CHO-PDL1 cells, 24 h, + HBA (so in the source)",[1],745
same,"EC50 NFkB-luciferase, HCC827 with IFNy stimulation, +HSA",[2],0.115 µg/mL
same,"EC50 NFkB-luciferase, HCC827 without IFNy stimulation, +HSA",[2],0.0766 µg/mL
same,Kd,[3],1200 nM
same,koff,[3],0.085 s⁻¹
same,kon,[3],69000 M⁻¹ s⁻¹
same,Kd,[4],0.11 nM
same,koff,[4],0.00017 s⁻¹
same,kon,[4],1.6e+06 M⁻¹ s⁻¹
same,Kd,[5],5.1 nM
same,koff,[5],0.0007 s⁻¹
same,kon,[5],140000 M⁻¹ s⁻¹
same,Kd,[6],4.8 nM
same,koff,[6],0.00079 s⁻¹
same,kon,[6],160000 M⁻¹ s⁻¹
same,Kd,human serum albumin,2.8 nM
same,koff,human serum albumin,0.00067 s⁻¹
same,kon,human serum albumin,240000 M⁻¹ s⁻¹
same,Kd,mouse serum albumin,66 nM
same,koff,mouse serum albumin,0.0085 s⁻¹
same,kon,mouse serum albumin,130000 M⁻¹ s⁻¹
same,"max. activation, HCC827 +IFNg, 24h",[7],135%
same,"max. activation, NF-kB reporter gene, CHO-PD-L1, 24h",[7],663%
same,"rel. IC50 (urelumab/test), HCC827 +IFNg, 24h",[7],0.46 ratio
same,"rel. IC50 (urelumab/test), HCC827 -IFNg, 24h",[7],0.62 ratio
same,"rel. IC50 (urelumab/test), NF-kB reporter gene, CHO-PD-L1, 24h",[7],0.1 ratio
same,"EC50 NFkB-luciferase, CHO-PDL1 cells, 6 h, + HSA",[8],0.112 µg/mL
same,"Top of curve fit, NFkB-luciferase, CHO-PDL1 cells, 6 h, + HSA",[8],463
